T1: human BCMA antigen (6His tag, product number CC28, Novoprotein) (human, UniProt Q02223 1-54)
T1 construct: Bought reagent; not shown: 6His tag
T1 sequence (looked up): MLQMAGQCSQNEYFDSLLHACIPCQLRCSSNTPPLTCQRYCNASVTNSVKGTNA

T2: commercial recombinant human BCMA protein (Fc tag, Cat. No. CS79, Novoprotein) (human, UniProt Q02223 1-54)
T2 construct: Bought reagent; also called Human recombinant BCMA protein; BCMA antigen (Novoprotein cat: CS79); not shown: Fc tag
T2 sequence (looked up): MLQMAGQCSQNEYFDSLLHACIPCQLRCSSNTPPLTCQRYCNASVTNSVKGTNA


How the values were obtained:
[1] = target: T1, human BCMA antigen (6His tag, product …); test: SPR, Biacore T200, BCMA-6His on chip, antibody as analyte
Excerpt: Example 8: Affinity Analysis of Anti-Human BCMA Monoclonal Antibody Binding to Human BCMA The kit, consumables and instruments used in this example were purchased from GE Healthcare; According to the instructions provided, human BCMA antigen (6His tag, product number CC28, Novoprotein) is conjugated to the chip surface, and then HBS-EP+ buffer solution is double-diluted to prepare different concentrations of the antibody to be analyzed, and meanwhile set the 0 concentration point and the quality control concentration point; According to the manufacturer's standard setting procedure of Biacore T200, the flow cell that captures ligand is used as the detection channel, the flow cell of un-captured ligand as the reference channel, and the HBS-EP+ buffer solution as the mobile phase, and different concentrations of the antibody solution to be analyzed are injected respectively; The SPR signal is collected by the Biacore T200 Control software, and then the data is processed by the Biacore T200 Evaluation analysis software; Finally, the Ka, Kd and KD values are calculated for the kinetic analysis or steady-state analysis of the obtained kinetic curves, and the results are shown in Table. 2.

[2] = target: T2, commercial recombinant human BCMA …; test: ELISA, BCMA-Fc (CS79) coated on plate, hybridoma supernatant diluted 1:50, anti-mouse IgG-HRP
Description: Dilute BCMA antigen (Novoprotein cat: CS79) with PBS to 0.5 ng/μl; add 100 μl/well of antigen to a 96-well flat-bottom ELISA plate (Maxisorp), seal with cling film, and store at 4° C. overnight; pour off the antigen the next day. After that, wash with PBS (200 μl/well), pour off the PBS, pat dry on absorbent paper and add 200 μl of blocking solution to each well and block at room temperature for 2 hours. After blocking, pour off the blocking solution and pat dry on absorbent paper; add 50 μl of HRP-conjugated goat anti-mouse IgG secondary antibody diluted in diluent, place at room temperature for 1 hour, then pour off the liquid and wash 5 times with washing solution (200 μl/well), finally pour off the washing solution and pat dry on absorbent paper; add 50 μl/well of TMB-hydrogen peroxide urea solution substrate solution and place it at room temperature for 3-5 minutes, add 50 μl/well of 0.25M sulfuric acid to stop the reaction, the optical density was measured by obtaining the absorbance with a 450 nm filter under a multifunctional microplate reader.

Row | Binder | Kd [1] [pM] | koff [1] [s⁻¹] | kon [1] [M⁻¹ s⁻¹] | OD450 [2]
1 | anti-human BCMA monoclonal antibody 23C4 (antibody, human IgG1, kappa, V domains shown, Tested as hybridoma supernatant (ELISA) or Protein G-purified hybridoma antibody (SPR); constant region of the tested hybridoma material is uncertain (anti-mouse IgG secondary used)) VH: EVQLVESGGGLVQPGRSLRLSCAASGFTFADHAMHWVRQAPGKGLEWVSGISWNSDHIGYADSVKGRFTISRDNAKNSLYLQMNSLRPEDTALYYCAKDIFSPTGDGYWGQGTLVTVSS VL: DIQMTQSPSSLSASVGDRVTITCRASQDIRNNLGWFQQKPGKTPKRLIYAASSLQSGVPSRFSGSGSGTEFTLIISSLQPEDFATYYCLHHNSYPPTFGQGTKVEIKR | 146 | 7.01e-05 | 481000 | 2.86
2 | anti-human BCMA monoclonal antibody 20A9 (antibody, human IgG1, kappa, V domains shown, Tested as hybridoma supernatant (ELISA) or Protein G-purified hybridoma antibody (SPR); constant region of the tested hybridoma material is uncertain (anti-mouse IgG secondary used)) VH: QVQLVQSGAEVKKPGASAKVSCKASGYTFTSYAMQWVRQAPGQRLEWMGWINAGNGNIKYSQKFQGRVTITRDTSASTAYMELSSLRSEDTAVYYCARGGRLELDVYYYFYYMDVWGKGTTVTVSS VL: DIVMSQSPDSLAVSLGERTTINCKSSQSVLHSSQNKNYLAWYQQKPGQPPNPLIHWASTRESGVPDRFSGSGSGTDFTLTISSLQAEDVAVYYCQQYYRVPFTFGPGTKVDIKR | 40.9 | 2.34e-05 | 573000 | 2.2
3 | anti-human BCMA monoclonal antibody 15H6 (antibody, human IgG1, kappa, V domains shown, Tested as hybridoma supernatant (ELISA) or Protein G-purified hybridoma antibody (SPR); constant region of the tested hybridoma material is uncertain (anti-mouse IgG secondary used)) VH: QVQLVQSGAEVKKPGASAKVSCKASGYTFTSYAMQWVRQAPGQRLEWMGWINAGNGNTKYSQKFQGRVTITRDTSASTAYMELSSLRSEDTAVYYCARGGRLELDIYYYFYYMDVWGKGTTVTVSS VL: DIVMSQSPDSLAVSLGERTTINCKSSQSVLHSSQNKNYLAWYQQKPGQPPNPLIHWASTRESGVPDRFSGSGSGTDFTLTISSLQAEDVAVYYCQQYYRVPFTFGPGTKVDIKR | 88.5 | 4.28e-05 | 483000 | 2.49
4 | anti-human BCMA monoclonal antibody 11B10 (antibody, human IgG1, kappa, V domains shown, Tested as hybridoma supernatant (ELISA) or Protein G-purified hybridoma antibody (SPR); constant region of the tested hybridoma material is uncertain (anti-mouse IgG secondary used)) VH: QVQLVQSGAEVKKPGASVKVSCKASGYTFTSYAMHWVRQAPGQRLEWMGWINTGNGNTKYSQKFQGRVTITRDTSASTAYMELSSLRSEDTAVYYCARGGSITGNIFYYYYYMDVWGKGTTVTVAS VL: not shown | 253 | 0.000269 | 1.06e+06 | 2.55
5 | anti-human BCMA monoclonal antibody 11G1 (antibody, V domains shown, Tested as hybridoma supernatant (ELISA) or Protein G-purified hybridoma antibody (SPR); constant region of the tested hybridoma material is uncertain (anti-mouse IgG secondary used)) VH: EVQLVESGGGLVQPGRSLRLSCEASGFTFDDYAMHWVRQPPGKGLEWVSGISWNSDNIGYADSVKGRFTISRDNAKNSLYLQMNSLRAEDTALYYCAKIQSGSSFDYWGQGTLVTVSS VL: DIQMTQSPSSLSASVGDRVTITCRASQSIINFLNWYQQKPGKAPKLLIYGASNLQSGVPSRFSGSGSGTDFTLTISSLQPEDFATYCCQQSSSIPLTFGGGTKVEIKR | 34.5 | 1.63e-05 | 472000 | 2.71
6 | anti-human BCMA monoclonal antibody 15A7 (antibody, human IgG1, kappa, V domains shown, Tested as hybridoma supernatant (ELISA) or Protein G-purified hybridoma antibody (SPR); constant region of the tested hybridoma material is uncertain (anti-mouse IgG secondary used)) VH: EVQLVESGGGLVQPGGSLRLSCEASGFTFDDCAMHWVRQTPGKGLEWVSGISWNSDTMGYADSVKGRFIISRDNAKNSLYLQMNSLRVEDTALYHCTRVRAAVFDYWGQGVLVTVSS VL: DIHMTQSPSSLSASVGDRVTITCRASQSISSYLNWFQQKPGKAPTVLIYAASSLQSGVSSRFSGRGSGADFTLTISSLQPEDFASYFCQQSFSPLYIFGQGTKVEIKR | 125 | 6.02e-05 | 480000 | 2.12
7 | anti-human BCMA monoclonal antibody 20A2 (antibody, human IgG1, kappa, V domains shown, Tested as hybridoma supernatant (ELISA) or Protein G-purified hybridoma antibody (SPR); constant region of the tested hybridoma material is uncertain (anti-mouse IgG secondary used)) VH: QIQLVQSGAEVKKPGASVKVSCKASGYTFTAYYLHWVRQSPGHGLEWMGRIYPNSGDTNYAQKFQGRVTMTRDTSINTAYMELSRLRSDDTALYYCARGFNWNYEGGFDIWGQGTMVTVSS VL: DVVMTQSPLSLSVTLGQPASISCRSGQSLVYSDGNTYLNWFQQRPGQSPRRLIYKLSSRDSGVPDRFSGSGSGTDFTLKISRMEAEDVGVYYCMQRTHWPPTFGQGTKVEIKR | 65.6 | 5.29e-05 | 807000 | 

The remaining binders from weak to strong by Kd [1], led by results:

Row | Kd [1] [pM] | koff [1] [s⁻¹] | kon [1] [M⁻¹ s⁻¹] | OD450 [2] | Binder
8 | 50.4 | 2.57e-05 | 510000 | 2.3 | anti-human BCMA monoclonal antibody 7E11 (antibody, human IgG1, kappa, V domains shown, Tested as hybridoma supernatant (ELISA) or Protein G-purified hybridoma antibody (SPR)) VH: EVQLVESGGGLVQPGGSLRLSCAASGFTFSYYDMHWVRQGTGKGLEWVSGIGTSGDTYYPDSVKGRFTISRENAKNSLNLQMNSLRDGDTAMYYCARGPYYYNSSGYYSYDALDIWGQGTMVTVTS VL: not shown
9 | 48.2 | 2.78e-05 | 576000 | 3 | anti-human BCMA monoclonal antibody 31F5 (antibody, V domains shown, Tested as hybridoma supernatant (ELISA) or Protein G-purified hybridoma antibody (SPR); constant region of the tested hybridoma material is uncertain (anti-mouse IgG secondary used)) VH: EVQLVESGGGLVQPGRSLRLSCAASGFTFDDYAMHWVRQAPGKGLEWVSGISWNSDNIAYADSVKGRFTISRDNAENSLYLQMNSLRTEDTAIYYCAKVAAATFDYRGQGTLVTVSS VL: DIQMTQSPSSLSASVGDRVTITCRASQSISSYLNWYQQKPGKAPKLLIFAASSLQSGVPSRFSGSGSGTDFTLTISSLQPEDFATYSCQQSFSIPFTFGPGTKVDIKR
10 | 47.7 | 2.43e-05 | 510000 | 2.4 | anti-human BCMA monoclonal antibody 18D10 (antibody, human IgG1, kappa, V domains shown, Tested as hybridoma supernatant (ELISA) or Protein G-purified hybridoma antibody (SPR); constant region of the tested hybridoma material is uncertain (anti-mouse IgG secondary used)) VH: EVRLVESGGGLVQPGRSLRLSCAASGFTSNDYAMHWVRQAPGRGLEWVSGISWNSDSIGYADSVKGRFTISRDNAKNSLYLQMNSLRTEDTALYYCATVVSAYFDYWGQGTLVTVSS VL: DIQMTQSPSSLSASVGDRVTITCRTSQSISTYLNWYQQKPGKAPKLLIYAASSLKSGVPSRFSGSGSGTDFTLTISSLQPEDFATYFCQGSYIIPLTFGGGTRVEIKR
11 | 11.7 | 7.22e-05 | 6.18e+06 | 2.59 | anti-human BCMA monoclonal antibody 27A7 (antibody, human IgG1, kappa, V domains shown, Tested as hybridoma supernatant (ELISA) or Protein G-purified hybridoma antibody (SPR); constant region of the tested hybridoma material is uncertain (anti-mouse IgG secondary used)) VH: EVQLVESGGGLVQPGRSLRLSCAASGFTFDDHAMHWVRQAPGKGLEWVSGISWNSVHIGYADSVKGRFTISRDNAKNSLYLQMNSLRAEDTALYYCAKDIFSPTGDDYWGQGTLVTVSS VL: DIQMTQSPSSLSASVGDRVTITCRASQDIRNNLGWFQQKPGKTPKRLIYAASSLQSGVPSRFSGSGSGTEFTLTISSLQPEDFATYYCLHHNSYPPTFGQGTKVEIKR
